Measurements as given in US20150175708A1 (Eli Lilly, published 2015).
One block for each binder: values may come before it.

Legend:
[1] = target: T1, MET on the cell surface of human tumor cell lines (human, UniProt P08581 25-1390); assay: cell-based or functional assay
[2] = target: T1, MET on the cell surface of human tumor …; assay: cell-based or functional assay; remark: listed apart in the source
[3] = target: EGFR on the cell surface of human tumor cell lines (human, UniProt P00533 25-1210); assay: cell-based or functional assay
[4] = target: extracellular domain of human MET (MET-ECD) (human, UniProt P08581 25-932); assay: SPR (Biacore), antibody captured on protein A chip, MET-ECD in solution, 25 C, 1:1 model
[5] = target: T2, human EGFR extracellular domain (EGFR-ECD) (human, UniProt P00533 25-645); assay: SPR (Biacore), antibody captured on protein A chip, EGFR-ECD in solution, 25 C, 1:1 model
T2 construct: extracellular domain; also called human EGFR-ECD

T1 sequence (P08581 25-1390): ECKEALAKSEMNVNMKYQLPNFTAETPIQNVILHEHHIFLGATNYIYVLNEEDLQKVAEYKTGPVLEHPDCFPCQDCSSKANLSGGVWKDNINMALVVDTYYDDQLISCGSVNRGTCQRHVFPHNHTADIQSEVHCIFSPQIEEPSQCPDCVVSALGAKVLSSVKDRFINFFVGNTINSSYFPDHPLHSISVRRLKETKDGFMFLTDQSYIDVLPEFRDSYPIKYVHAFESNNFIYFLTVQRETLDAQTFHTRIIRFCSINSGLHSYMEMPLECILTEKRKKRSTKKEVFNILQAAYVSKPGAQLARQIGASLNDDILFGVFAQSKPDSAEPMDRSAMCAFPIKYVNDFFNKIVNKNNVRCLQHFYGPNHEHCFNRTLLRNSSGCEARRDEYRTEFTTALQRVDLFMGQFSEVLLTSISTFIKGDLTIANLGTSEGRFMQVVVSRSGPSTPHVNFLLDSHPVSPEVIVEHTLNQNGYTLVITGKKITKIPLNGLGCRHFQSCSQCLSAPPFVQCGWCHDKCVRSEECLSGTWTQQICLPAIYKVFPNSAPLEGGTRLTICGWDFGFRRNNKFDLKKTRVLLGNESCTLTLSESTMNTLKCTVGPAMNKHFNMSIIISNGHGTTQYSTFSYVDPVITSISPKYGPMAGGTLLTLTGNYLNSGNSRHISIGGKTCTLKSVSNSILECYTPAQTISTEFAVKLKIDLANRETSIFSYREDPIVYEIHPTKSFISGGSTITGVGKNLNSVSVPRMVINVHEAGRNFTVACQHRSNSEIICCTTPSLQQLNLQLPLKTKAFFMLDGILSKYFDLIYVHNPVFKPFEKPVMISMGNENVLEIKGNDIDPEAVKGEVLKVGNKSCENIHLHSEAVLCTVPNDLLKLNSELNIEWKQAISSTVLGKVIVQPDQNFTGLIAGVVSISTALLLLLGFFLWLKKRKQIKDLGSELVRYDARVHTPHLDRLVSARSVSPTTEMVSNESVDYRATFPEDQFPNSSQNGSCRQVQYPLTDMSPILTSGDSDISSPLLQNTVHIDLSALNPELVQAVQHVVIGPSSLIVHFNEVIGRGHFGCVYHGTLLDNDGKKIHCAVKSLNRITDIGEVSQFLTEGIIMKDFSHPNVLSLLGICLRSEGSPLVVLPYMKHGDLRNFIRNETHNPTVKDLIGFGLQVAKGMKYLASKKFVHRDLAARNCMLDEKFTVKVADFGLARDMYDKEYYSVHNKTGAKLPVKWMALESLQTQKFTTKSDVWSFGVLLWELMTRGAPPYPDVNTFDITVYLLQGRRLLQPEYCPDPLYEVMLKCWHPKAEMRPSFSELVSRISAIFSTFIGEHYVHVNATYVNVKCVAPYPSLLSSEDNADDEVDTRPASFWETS
extracellular domain of human MET (MET-ECD), sequence (P08581 25-932): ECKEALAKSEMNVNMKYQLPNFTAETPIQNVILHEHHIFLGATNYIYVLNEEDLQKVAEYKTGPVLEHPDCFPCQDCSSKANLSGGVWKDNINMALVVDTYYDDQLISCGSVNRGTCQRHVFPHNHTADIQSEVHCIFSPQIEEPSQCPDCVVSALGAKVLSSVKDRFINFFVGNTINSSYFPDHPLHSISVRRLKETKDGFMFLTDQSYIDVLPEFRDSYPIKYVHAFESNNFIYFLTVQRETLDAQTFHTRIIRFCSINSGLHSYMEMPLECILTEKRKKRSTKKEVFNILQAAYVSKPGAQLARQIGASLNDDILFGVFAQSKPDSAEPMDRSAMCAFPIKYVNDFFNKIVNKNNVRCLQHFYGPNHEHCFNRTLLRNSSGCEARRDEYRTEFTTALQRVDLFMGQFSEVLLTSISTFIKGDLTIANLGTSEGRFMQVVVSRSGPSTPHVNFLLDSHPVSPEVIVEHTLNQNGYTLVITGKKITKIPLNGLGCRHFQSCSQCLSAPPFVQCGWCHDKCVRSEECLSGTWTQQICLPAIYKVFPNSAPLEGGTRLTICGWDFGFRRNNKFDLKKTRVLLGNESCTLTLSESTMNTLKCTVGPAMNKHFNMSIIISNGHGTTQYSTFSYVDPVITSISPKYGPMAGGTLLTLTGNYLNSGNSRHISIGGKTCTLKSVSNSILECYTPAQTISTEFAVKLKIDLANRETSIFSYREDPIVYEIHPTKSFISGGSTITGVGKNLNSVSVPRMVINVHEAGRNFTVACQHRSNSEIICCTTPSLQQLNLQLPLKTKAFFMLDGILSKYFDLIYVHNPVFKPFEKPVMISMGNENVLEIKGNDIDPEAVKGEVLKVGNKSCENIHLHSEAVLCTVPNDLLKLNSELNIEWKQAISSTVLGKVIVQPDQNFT

B1: anti-MET/EGFR multifunctional antibody NH-YK (bispecific antibody, human IgG4 S228P, kappa, F234A L235A)
heavy: not shown
light: DIQMTQSPSSLSASVGDRVTITCSVSSSVSSIYLHWYQQKPGKAPKLLIYSTSNLASGVPSRFSGSGSGTDFTLTISSLQPEDFATYYCQVYSGYPLTFGGGTKVEIKRTVAAPSVFIFPPSDEQLKSGTASVVCLLNNFYPREAKVQWKVDNALQSGNSQESVTEQDSKDSTYSLSSTLTLSKADYEKHKVYACEVTHQGLSSPVTKSFNRGEC
notes: Tetravalent: anti-MET C8-H241 human IgG4 with an anti-EGFR YK scFv fused by a glycine-rich linker to the N-terminus of each heavy chain
% cell surface MET remaining, H441 cells, 50 nM antibody overnight, FACS [1]: 58%
AVG of MFI (staining of cell surface MET), H441 cells, 50 nM antibody overnight, FACS [1]: 44.9 MFI
average % of cell viability (CellTiter-Glo), H596 cells + 50 ng/mL HGF, antibody 0.4 nM [2]: 113%
average % of cell viability (CellTiter-Glo), H596 cells + 50 ng/mL HGF, antibody 1.2 nM [2]: 108%
average % of cell viability (CellTiter-Glo), H596 cells + 50 ng/mL HGF, antibody 3.7 nM [2]: 104%
average % of cell viability (CellTiter-Glo), H596 cells + 50 ng/mL HGF, antibody 11.1 nM [2]: 107%
average % of cell viability (CellTiter-Glo), H596 cells + 50 ng/mL HGF, antibody 33.3 nM [2]: 101%
average % of cell viability (CellTiter-Glo), H596 cells + 50 ng/mL HGF, antibody 100 nM [2]: 102%
average % of cell viability, H1666 cells, antibody 0.02 nM [3]: 106%
average % of cell viability, H1666 cells, antibody 0.05 nM [3]: 105%
average % of cell viability, H1666 cells, antibody 0.14 nM [3]: 87.2%
average % of cell viability, H1666 cells, antibody 0.41 nM [3]: 65.5%
average % of cell viability, H1666 cells, antibody 1.23 nM [3]: 45.6%
average % of cell viability, H1666 cells, antibody 3.70 nM [3]: 36.9%
average % of cell viability, H1666 cells, antibody 11.11 nM [3]: 31.9%
average % of cell viability, H1666 cells, antibody 33.33 nM [3]: 27.9%
average % of cell viability, H1666 cells, antibody 100 nM [3]: 26.4%
Kd [4]: 0.84 nM
koff [4]: 6.3e-05 s⁻¹
kon [4]: 75000 M⁻¹ s⁻¹
Kd [5]: 0.19 nM
koff [5]: 0.00075 s⁻¹
kon [5]: 4e+06 M⁻¹ s⁻¹

B2: anti-MET/EGFR multifunctional antibody H9 (bispecific antibody, human IgG4 S228P, kappa, F234A L235A)
heavy: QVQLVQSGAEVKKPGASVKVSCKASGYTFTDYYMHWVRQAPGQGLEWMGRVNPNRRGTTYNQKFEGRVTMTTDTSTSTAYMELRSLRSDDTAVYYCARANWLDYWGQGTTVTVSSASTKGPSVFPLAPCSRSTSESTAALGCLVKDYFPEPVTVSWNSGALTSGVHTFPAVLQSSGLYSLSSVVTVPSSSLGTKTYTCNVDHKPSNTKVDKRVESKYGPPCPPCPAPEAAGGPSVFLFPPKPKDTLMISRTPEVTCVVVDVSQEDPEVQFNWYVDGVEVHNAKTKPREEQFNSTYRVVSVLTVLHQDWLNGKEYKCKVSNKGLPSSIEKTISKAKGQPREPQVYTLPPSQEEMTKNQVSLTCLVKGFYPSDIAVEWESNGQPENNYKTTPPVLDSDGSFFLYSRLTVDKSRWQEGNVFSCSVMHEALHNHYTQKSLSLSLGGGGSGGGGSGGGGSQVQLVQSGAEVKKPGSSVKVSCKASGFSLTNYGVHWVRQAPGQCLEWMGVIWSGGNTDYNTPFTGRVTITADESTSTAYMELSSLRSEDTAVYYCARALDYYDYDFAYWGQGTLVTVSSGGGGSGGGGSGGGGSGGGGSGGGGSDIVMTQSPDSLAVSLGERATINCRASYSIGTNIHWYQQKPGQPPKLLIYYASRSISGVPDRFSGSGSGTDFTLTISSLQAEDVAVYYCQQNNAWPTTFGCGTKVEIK
light: B1 light
notes: Tetravalent: anti-MET C8-H241 human IgG4 with an anti-EGFR H9 scFv fused to the heavy chain C-terminus
Kd [4]: 1.15 nM
koff [4]: 0.000109 s⁻¹
kon [4]: 95000 M⁻¹ s⁻¹
Kd [5]: 0.32 nM
koff [5]: 0.00018 s⁻¹
kon [5]: 570000 M⁻¹ s⁻¹

The next binders have a lower Kd [4] than those just listed; values first:

Kd [4]: 0.75 nM
koff [4]: 7.9e-05 s⁻¹
kon [4]: 105000 M⁻¹ s⁻¹
Kd [5]: 0.1 nM
koff [5]: 0.00018 s⁻¹
kon [5]: 1.8e+06 M⁻¹ s⁻¹
B3: anti-MET/EGFR multifunctional antibody NH-H9 (bispecific antibody, human IgG4 S228P, kappa, F234A L235A)
heavy: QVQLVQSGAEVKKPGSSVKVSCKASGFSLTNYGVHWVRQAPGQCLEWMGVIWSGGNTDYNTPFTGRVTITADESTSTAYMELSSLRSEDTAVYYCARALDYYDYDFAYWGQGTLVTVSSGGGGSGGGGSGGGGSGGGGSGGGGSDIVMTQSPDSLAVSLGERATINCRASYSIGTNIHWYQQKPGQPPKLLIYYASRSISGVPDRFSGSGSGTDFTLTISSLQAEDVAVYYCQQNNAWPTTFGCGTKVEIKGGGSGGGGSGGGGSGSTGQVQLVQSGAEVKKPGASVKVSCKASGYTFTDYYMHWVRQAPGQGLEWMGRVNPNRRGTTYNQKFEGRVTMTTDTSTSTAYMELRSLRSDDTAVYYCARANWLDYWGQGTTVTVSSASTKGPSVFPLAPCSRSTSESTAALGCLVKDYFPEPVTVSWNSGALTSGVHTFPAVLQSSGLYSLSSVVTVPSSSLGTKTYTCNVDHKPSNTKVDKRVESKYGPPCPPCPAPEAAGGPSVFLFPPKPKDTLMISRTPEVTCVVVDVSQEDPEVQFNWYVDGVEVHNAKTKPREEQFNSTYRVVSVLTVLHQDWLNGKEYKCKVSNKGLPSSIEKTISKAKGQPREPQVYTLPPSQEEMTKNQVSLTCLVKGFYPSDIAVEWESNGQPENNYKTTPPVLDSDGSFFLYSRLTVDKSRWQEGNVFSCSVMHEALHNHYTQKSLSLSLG
light: B1 light
notes: Tetravalent: anti-MET C8-H241 human IgG4 with an anti-EGFR H9 scFv fused to the N-terminus of each heavy chain
average % of cell viability (CellTiter-Glo), H596 cells + 50 ng/mL HGF, antibody 0.4 nM [2]: 107%
average % of cell viability (CellTiter-Glo), H596 cells + 50 ng/mL HGF, antibody 1.2 nM [2]: 102%
average % of cell viability (CellTiter-Glo), H596 cells + 50 ng/mL HGF, antibody 3.7 nM [2]: 103%
average % of cell viability (CellTiter-Glo), H596 cells + 50 ng/mL HGF, antibody 11.1 nM [2]: 105%
average % of cell viability (CellTiter-Glo), H596 cells + 50 ng/mL HGF, antibody 33.3 nM [2]: 102%
average % of cell viability (CellTiter-Glo), H596 cells + 50 ng/mL HGF, antibody 100 nM [2]: 102%
average % of cell viability, H1666 cells, antibody 0.02 nM [3]: 105%
average % of cell viability, H1666 cells, antibody 0.05 nM [3]: 100%
average % of cell viability, H1666 cells, antibody 0.14 nM [3]: 77.8%
average % of cell viability, H1666 cells, antibody 0.41 nM [3]: 52.9%
average % of cell viability, H1666 cells, antibody 1.23 nM [3]: 38.6%
average % of cell viability, H1666 cells, antibody 3.70 nM [3]: 31.6%
average % of cell viability, H1666 cells, antibody 11.11 nM [3]: 26.6%
average % of cell viability, H1666 cells, antibody 33.33 nM [3]: 24.1%
average % of cell viability, H1666 cells, antibody 100 nM [3]: 23.1%

Kd [4]: 0.26 nM
koff [4]: 3.3e-05 s⁻¹
kon [4]: 126000 M⁻¹ s⁻¹
Kd [5]: 0.44 nM
koff [5]: 0.00057 s⁻¹
kon [5]: 1.3e+06 M⁻¹ s⁻¹
B4: anti-MET/EGFR multifunctional antibody YK (bispecific antibody, human IgG4 S228P, kappa, F234A L235A)
heavy: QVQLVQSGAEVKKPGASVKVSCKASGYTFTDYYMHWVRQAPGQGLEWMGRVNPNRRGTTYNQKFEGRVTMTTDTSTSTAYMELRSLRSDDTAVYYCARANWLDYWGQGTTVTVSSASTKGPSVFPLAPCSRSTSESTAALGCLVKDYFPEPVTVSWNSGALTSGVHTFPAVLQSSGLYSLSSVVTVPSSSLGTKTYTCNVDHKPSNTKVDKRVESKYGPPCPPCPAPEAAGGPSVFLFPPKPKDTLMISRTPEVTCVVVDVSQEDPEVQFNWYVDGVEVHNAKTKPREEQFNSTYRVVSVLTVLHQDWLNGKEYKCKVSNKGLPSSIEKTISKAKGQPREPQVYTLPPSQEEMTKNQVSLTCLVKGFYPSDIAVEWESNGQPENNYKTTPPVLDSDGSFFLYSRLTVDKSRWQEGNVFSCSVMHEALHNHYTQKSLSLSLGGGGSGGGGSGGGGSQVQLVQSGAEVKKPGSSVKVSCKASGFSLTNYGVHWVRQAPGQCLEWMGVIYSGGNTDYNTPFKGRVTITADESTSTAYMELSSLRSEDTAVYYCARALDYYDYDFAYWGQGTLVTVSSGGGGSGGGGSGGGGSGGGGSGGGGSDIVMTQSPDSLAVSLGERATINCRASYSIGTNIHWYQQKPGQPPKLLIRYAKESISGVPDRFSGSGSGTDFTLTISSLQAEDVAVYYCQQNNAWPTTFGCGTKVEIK
light: B1 light
notes: Tetravalent: anti-MET C8-H241 human IgG4 with an anti-EGFR YK scFv fused to the heavy chain C-terminus
